The target of assay [1] is T1, Human Serum Albumin (human, UniProt P02768 25-609).
T1 construct: also called HSA; HAS
Nature of the assay: kinetics table, analyte HSA, single concentration 50nM; HEK293 material; method not named in Example 4.

Assay [2] has as its target T1, Human Serum Albumin. Nature of the assay: kinetics table, analyte HSA, titration 50nM, 25nM, 12.5nM, 6.25nM; HEK293 material; method not named in Example 4.
In a further assay the target is T2, Mouse Serum albumin (mouse, UniProt P07724 25-608).
T2 construct: also called MSA
Nature of the assay: SPR BIAcore T200; Fab-Fv captured by anti-human F(ab')2, albumin as analyte; average of 3. The procedure:
(§1) BIA (Biamolecular Interaction Analysis) was performed using a BIAcore T200 (GE Healthcare). Affinipure F(ab′)₂ Fragment goat anti-human IgG, F(ab′)₂ fragment specific (Jackson ImmunoResearch) was immobilised on a CM5 Sensor Chip via amine coupling chemistry to a capture level of ≈5000 response units (RUs). HBS-EP buffer (10 mM HEPES pH 7.4, 0.15 M NaCl, 3 mM EDTA, 0.05% Surfactant P20, GE Healthcare) was used as the running buffer with a flow rate of 10 μl/min. A 10 μL injection of Fab-Fv at 0.75 μg/mL was used for capture by the immobilised anti-human IgG-F(ab′)₂. Human Serum Albumin (HSA), Mouse Serum albumin (MSA) and Cynomolgus Serum Albumin (CSA) was titrated over the captured Fab-Fv at various concentrations (50 nM to 6.25 nM) at a flow rate of 30 μL/min. The surface was regenerated by 2×10 μL injection of 50 mM HCl, followed by a 5 μL injection of 5 mM NaOH at a flowrate of 10 μL/min. Background subtraction binding curves were analysed using the T200evaluation software (version 1.0) following standard procedures. Kinetic parameters were determined from the fitting algorithm.
(In SPR one partner is held on a chip, and binding of the other changes the refractive index at the surface.)

Assay [3] deals with T1, Human Serum Albumin. Described as above. The procedure: as §1
The target of a further assay is T3, Cynomolgus Serum Albumin (cynomolgus, UniProt A2V9Z4 25-608).
T3 construct: also called CSA
The description is as above. Here is the method: as §1

B1: FabA-dsscFv (CL-dsscFv) (bispecific antibody)
chain 1: DIQMTQSPSSLSASVGDRVTITCRATQSIYNALAWYQQKPGKAPKLLIYNANTLHTGVPSRFSASGSGTDSTLTISSLQPEDFATYYCQQYYDYPLTFGGGTKVEIKRTVAAPSVFIFPPSDEQLKSGTASVVCLLNNFYPREAKVQWKVDNALQSGNSQESVTEQDSKDSTYSLSSTLTLSKADYEKHKVYACEVTHQGLSSPVTKSFNRGECSGGGGSGGGGSGGGGSEVQLLESGGGLVQPGGSLRLSCAVSGIDLSNYAINWVRQAPGKCLEWIGIIWASGTTFYATWAKGRFTISRDNSKNTVYLQMNSLRAEDTAVYYCARTVPGYSTAPYFDLWGQGTLVTVSSGGGGSGGGGSGGGGSGGGGSDIQMTQSPSSVSASVGDRVTITCQSSPSVWSNFLSWYQQKPGKAPKLLIYEASKLTSGVPSRFSGSGSGTDFTLTISSLQPEDFATYYCGGGYSSISDTTFGCGTKVEIKRT
chain 2: EVQLVESGGGLVQPGGSLRLSCAASGFTFTNYGIHWIRQAPGKGLEWVASISPSGGLTYYRDSVKGRFTISRDDAKNSPYLQMNSLRAEDTAVYYCATGGEGIFDYWGQGTLVTVSSASTKGPSVFPLAPSSKSTSGGTAALGCLVKDYFPEPVTVSWNSGALTSGVHTFPAVLQSSGLYSLSSVVTVPSSSLGTQTYICNVNHKPSNTKVDKKVEPKSC
A word on the Kd: it is the concentration at which binding is half-saturated. Higher therefore signals weaker binding. What is called koff is the rate constant with which the complex falls apart. Read a high koff as a short-lived complex. In general, kon refers to the rate constant with which the complex forms. The low end stands for slower complex formation, the high end for faster complex formation. In the assay with Human Serum Albumin [1], B1 came in with a Kd of 1.28 nM, a koff of 0.000211 s⁻¹ and a kon of 165000 M⁻¹ s⁻¹. In the assay with Human Serum Albumin [2], this molecule displayed a dissociation constant (Kd) of 1.31 nM, a dissociation rate constant (koff) of 0.00024 s⁻¹ and a kon of 183000 M⁻¹ s⁻¹.

B2: A26 Fab-dsFv (645gH5gL4) (bispecific antibody)
heavy: EVQLVESGGGLVQPGGSLRLSCAASGFTFTNYGIHWIRQAPGKGLEWVASISPSGGLTYYRDSVKGRFTISRDDAKNSPYLQMNSLRAEDTAVYYCATGGEGIFDYWGQGTLVTVSSASTKGPSVFPLAPSSKSTSGGTAALGCLVKDYFPEPVTVSWNSGALTSGVHTFPAVLQSSGLYSLSSVVTVPSSSLGTQTYICNVNHKPSNTKVDKKVEPKSCSGGGGSGGGGTGGGGSEVQLLESGGGLVQPGGSLRLSCAVSGIDLSNYAINWVRQAPGKCLEWIGIIWASGTTFYATWAKGRFTISRDNSKNTVYLQMNSLRAEDTAVYYCARTVPGYSTAPYFDLWGQGTLVTVSS
light: DIQMTQSPSSLSASVGDRVTITCRATQSIYNALAWYQQKPGKAPKLLIYNANTLHTGVPSRFSASGSGTDSTLTISSLQPEDFATYYCQQYYDYPLTFGGGTKVEIKRTVAAPSVFIFPPSDEQLKSGTASVVCLLNNFYPREAKVQWKVDNALQSGNSQESVTEQDSKDSTYSLSSTLTLSKADYEKHKVYACEVTHQGLSSPVTKSFNRGECGGGGSGGGGSGGGGSDIQMTQSPSSVSASVGDRVTITCQSSPSVWSNFLSWYQQKPGKAPKLLIYEASKLTSGVPSRFSGSGSGTDFTLTISSLQPEDFATYYCGGGYSSISDTTFGCGTKVEIKRT
notes: Anti-OX40 A26 Fab fused to the disulphide-stabilised anti-albumin Fv 645gH5gL4; In the cell assay (2.4) it was labelled with Alexa Fluor 488; also called A26 Fab-Fv; Fab-Fv
In the assay with Mouse Serum albumin, B2 registered an equilibrium dissociation constant (Kd) of 4.16 nM, a koff of 0.000368 s⁻¹ and a kon of 88600 M⁻¹ s⁻¹. In addition, in the assay with Human Serum Albumin [3], the affinity, expressed as Kd, was 2.93 nM; the dissociation rate constant (koff) was 0.000163 s⁻¹; the kon stood at 58400 M⁻¹ s⁻¹. Also, in the assay with Cynomolgus Serum Albumin, the Kd stood at 2.66 nM, the koff came to 0.000189 s⁻¹ and the kon is 71000 M⁻¹ s⁻¹.

B3: FabA-dsscFv (CH1-dsscFv) (bispecific antibody)
chain 1: EVQLVESGGGLVQPGGSLRLSCAASGFTFTNYGIHWIRQAPGKGLEWVASISPSGGLTYYRDSVKGRFTISRDDAKNSPYLQMNSLRAEDTAVYYCATGGEGIFDYWGQGTLVTVSSASTKGPSVFPLAPSSKSTSGGTAALGCLVKDYFPEPVTVSWNSGALTSGVHTFPAVLQSSGLYSLSSVVTVPSSSLGTQTYICNVNHKPSNTKVDKKVEPKSCSGGGGSGGGGTGGGGSEVQLLESGGGLVQPGGSLRLSCAVSGIDLSNYAINWVRQAPGKCLEWIGIIWASGTTFYATWAKGRFTISRDNSKNTVYLQMNSLRAEDTAVYYCARTVPGYSTAPYFDLWGQGTLVTVSSGGGGSGGGGSGGGGSGGGGSDIQMTQSPSSVSASVGDRVTITCQSSPSVWSNFLSWYQQKPGKAPKLLIYEASKLTSGVPSRFSGSGSGTDFTLTISSLQPEDFATYYCGGGYSSISDTTFGCGTKVEIKRT
chain 2: DIQMTQSPSSLSASVGDRVTITCRATQSIYNALAWYQQKPGKAPKLLIYNANTLHTGVPSRFSASGSGTDSTLTISSLQPEDFATYYCQQYYDYPLTFGGGTKVEIKRTVAAPSVFIFPPSDEQLKSGTASVVCLLNNFYPREAKVQWKVDNALQSGNSQESVTEQDSKDSTYSLSSTLTLSKADYEKHKVYACEVTHQGLSSPVTKSFNRGEC
In the assay with Human Serum Albumin [1], B3 had a dissociation constant Kd of 1.25 nM, a koff of 0.000199 s⁻¹ and a kon of 160000 M⁻¹ s⁻¹. In addition, in the assay with Human Serum Albumin [2], the dissociation constant (Kd) was 1.29 nM, the koff came to 0.000222 s⁻¹ and the kon turned out to be 172000 M⁻¹ s⁻¹.

The values above are taken from patent publication US20140302033A1 (UCB, published 2014).
